Biological target: human α2(I) procollagen (human) (UniProt P08123)
Test: cell-based or functional assay

Sequence of human α2(I) procollagen (human) (P08123 23-1366 limits assumed): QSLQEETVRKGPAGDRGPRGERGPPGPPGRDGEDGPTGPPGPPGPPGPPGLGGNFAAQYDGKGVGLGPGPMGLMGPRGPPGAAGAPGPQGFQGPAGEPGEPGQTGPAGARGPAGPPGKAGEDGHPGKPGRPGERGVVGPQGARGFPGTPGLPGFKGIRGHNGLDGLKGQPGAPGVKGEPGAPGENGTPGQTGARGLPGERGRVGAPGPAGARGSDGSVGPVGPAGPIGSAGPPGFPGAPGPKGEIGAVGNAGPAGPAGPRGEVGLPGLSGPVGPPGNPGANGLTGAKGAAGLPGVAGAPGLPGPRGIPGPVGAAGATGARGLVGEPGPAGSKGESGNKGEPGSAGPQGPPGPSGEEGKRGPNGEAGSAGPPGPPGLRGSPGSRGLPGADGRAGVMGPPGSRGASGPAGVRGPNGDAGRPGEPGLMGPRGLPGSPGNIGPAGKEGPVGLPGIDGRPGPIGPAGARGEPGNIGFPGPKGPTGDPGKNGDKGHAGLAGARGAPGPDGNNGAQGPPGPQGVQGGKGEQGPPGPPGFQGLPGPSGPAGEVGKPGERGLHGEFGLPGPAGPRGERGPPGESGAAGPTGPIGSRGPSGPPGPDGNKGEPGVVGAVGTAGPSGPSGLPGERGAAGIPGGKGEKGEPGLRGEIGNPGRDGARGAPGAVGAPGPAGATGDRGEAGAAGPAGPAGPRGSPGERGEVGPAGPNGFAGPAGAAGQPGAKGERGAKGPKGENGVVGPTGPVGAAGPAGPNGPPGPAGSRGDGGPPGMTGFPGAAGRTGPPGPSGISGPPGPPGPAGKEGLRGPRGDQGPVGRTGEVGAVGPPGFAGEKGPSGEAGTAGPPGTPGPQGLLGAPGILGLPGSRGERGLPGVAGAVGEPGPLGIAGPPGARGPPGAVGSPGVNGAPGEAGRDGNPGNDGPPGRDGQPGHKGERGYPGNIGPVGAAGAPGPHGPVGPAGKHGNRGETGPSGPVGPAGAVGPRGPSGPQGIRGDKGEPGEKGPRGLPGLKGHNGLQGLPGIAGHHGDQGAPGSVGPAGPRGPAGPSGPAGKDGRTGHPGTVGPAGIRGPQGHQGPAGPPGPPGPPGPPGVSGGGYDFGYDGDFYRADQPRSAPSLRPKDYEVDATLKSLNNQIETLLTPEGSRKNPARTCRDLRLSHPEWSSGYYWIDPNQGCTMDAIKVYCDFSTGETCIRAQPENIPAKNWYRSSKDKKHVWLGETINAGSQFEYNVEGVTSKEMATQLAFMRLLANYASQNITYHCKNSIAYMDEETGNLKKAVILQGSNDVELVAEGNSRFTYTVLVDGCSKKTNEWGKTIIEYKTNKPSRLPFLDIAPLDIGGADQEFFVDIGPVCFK

resistance to pepsin digestion at increasing temperatures (SDS-PAGE): 38 ° C.
Substance: human α1(I) procollagen (from UniProt P02452 23-1464)

From US6472171
